Results on four molecules are retold here after patent US20030165506A1 (VLAAMS INTERUNIVERSITAIR INSTITUUT VOOR BIOTECHNOLOGIE VZW, published 2003).

B1: amino terminal part of β-catenin, prey fusion of plasmid pGAD424-ATβctn (other, UniProt P35222 14-172, looked up)
chain: MEPDRKAAVSHWQQQSYLDSGIHSGATTTAPSLSGKGNPEEEDVDTSQVLYEWEQGFSQSFTQEQVADIDGQYAMTRAQRVRAAMFPETLDEGMQIPSTQFDAAHPTNVQRLAEPSQMLKHAVVNLINYQDDAELATRAIPELTKLLNDEDQVVVNKAA
notes: domain: amino terminal fragment 239-717; also called amino terminal fragment 239-717 of β-catenin; not shown: fusion partner encoded by the prey vector pGAD424 (Clontech)
B2: human αT-catenin fused to the GAL4 binding domain, bait plasmid pGBKT7-ATCTN(179-3024) (other, not shown: large carriers)
chain: SAETPITLNIDPQDLQVQTFTVEKLLEPLIIQVTTLVNCPQNPSSRKKGRSKRASVLLASVEEATWNLLDKGEKIAQEATVLKDELTASLEEVRKESEALKVSAERFTDDPCFLPKREAVVQAARALLAAVTRLLILADMIDVMCLLQHVSAFQRTFETLKNVANKSDLQKTYQKLGKELENLDYLAFKRQQDLKSPNQRDEIAGARASLKENSPLLHSICSACLEHSDVASLKASKDTVCEEIQNALNVISNASQGIQNMTTPPEPQAATLGSALDELENLIVLNPLTVTEEEIRPSLEKRLEAIISGAALLADSSCTRDLHRERIIAECNAIRQALQDLLSEYMNNAGKKERSNTLNIALDNMCKKTRDLRRQLRKAIIDHVSDSFLDTTVPLLVLIEAAKNGREKEIKEYAAIFHEHTSRLVEVANLACSMSTNEDGIKIVKIAANHLETLCPQIINAALALAARPKSQAVKNTMEMYKRTWENHIHVLTEAVDDITSIDDFLAVSESHILEDVNKCIIALRDQDADNLDRAAGAIRGRAARVAHIVTGEMDSYEPGAYTEGVMRNVNFLTSTVIPEFVTQVNVALEALSKSSLNVLDDNQFVDISKKIYDTIHDIRCSVMMIRTPEELEDVSDLEEEHEVRSHTSIQTEGKTDRAKMTQLPEAEKEKIAEQVADFKKVKSKLDAEIEIWDDTSNDIIVLAKNMCMIMMEMTDFTRGKGPLKHTTDVIYAAKMISESGSRMDVLARQIANQCPDPSCKQDLLAYLEQIKFYSHQLKICSQVKAEIQNLGGELIMSALDSVTSLIQAAKNLMNAVVQTVKMSYIASTKIIRIQSPAGPRHPVVMWRMKAPAKKPLIKREKPEETCAAVRRGSAKKKIHPLQVMSEFRGRQIY
B3: nearly full-length human plakoglobin, prey fusion of plasmid pGAD424-Plakoglobin(227-2340) (other, UniProt P14923 37-740, looked up)
chain: VSSKGIMEEDEACGRQYTLKKTTTYTQGVPPSQGDLEYQMSTTARAKRVREAMCPGVSGEDSSLLLATQVEGQATNLQRLAEPSQLLKSAIVHLINYQDDAELATRALPELTKLLNDEDPVVVTKAAMIVNQLSKKEASRRALMGSPQLVAAVVRTMQNTSDLDTARCTTSILHNLSHHREGLLAIFKSGGIPALVRMLSSPVESVLFYAITTLHNLLLYQEGAKMAVRLADGLQKMVPLLNKNNPKFLAITTDCLQLLAYGNQESKLIILANGGPQALVQIMRNYSYEKLLWTTSRVLKVLSVCPSNKPAIVEAGGMQALGKHLTSNSPRLVQNCLWTLRNLSDVATKQEGLESVLKILVNQLSVDDVNVLTCATGTLSNLTCNNSKNKTLVTQNSGVEALIHAILRAGDKDDITEPAVCALRHLTSRHPEAEMAQNSVRLNYGIPAIVKLLNQPNQWPLVKATIGLIRNLALCPANHAPLQEAAVIPRLVQLLVKAHQDAQRHVAAGTQQPYTDGVRMEEIVEGCTGALHILARDPMNRMEIFRLNTIPLFVQLLYSSVENIQRVAAGVLCELAQDKEAADAIDAEGASAPLMELLHSRNEGTATYAAAVLFRISEDKNPDYRKRVSVELTNSLFKHDPAAWEAAQSMIPINEPYGDDMDATYRPMYSSDVPLDPLEMHMDMDGDYPIDTYSDGLRPPYPTA
notes: domain: nearly full-length plakoglobin; not shown: fusion partner encoded by the prey vector pGAD424 (Clontech)
B4: human αT-catenin fused to the LexA binding domain, bait plasmid pLexMG-ATCTN(179-2860) (other)
chain: MKALTARQQEVFDLIRDHISQTGMPPTRAEIAQRLGFRSPNAAEEHLKALARKGVIEIVSGASRGIRLLQEEEEGLPLVGRVAAGEPLLAQQHIEGHYQVDPSLFKPNADFLLRVSGMSMKDIGIMDGDLLAVHKTQDVRNGQVVVARIDDEVTVKRLKKQGNKVELLPENSEFKPIVVDLRQQSFTIEGLAVGVIRNGDWLSAETPITLNIDPQDLQVQTFTVEKLLEPLIIQVTTLVNCPQNPSSRKKGRSKRASVLLASVEEATWNLLDKGEKIAQEATVLKDELTASLEEVRKESEALKVSAERFTDDPCFLPKREAVVQAARALLAAVTRLLILADMIDVMCLLQHVSAFQRTFETLKNVANKSDLQKTYQKLGKELENLDYLAFKRQQDLKSPNQRDEIAGARASLKENSPLLHSICSACLEHSDVASLKASKDTVCEEIQNALNVISNASQGIQNMTTPPEPQAATLGSALDELENLIVLNPLTVTEEEIRPSLEKRLEAIISGAALLADSSCTRDLHRERIIAECNAIRQALQDLLSEYMNNAGKKERSNTLNIALDNMCKKTRDLRRQLRKAIIDHVSDSFLDTTVPLLVLIEAAKNGREKEIKEYAAIFHEHTSRLVEVANLACSMSTNEDGIKIVKIAANHLETLCPQIINAALALAARPKSQAVKNTMEMYKRTWENHIHVLTEAVDDITSIDDFLAVSESHILEDVNKCIIALRDQDADNLDRAAGAIRGRAARVAHIVTGEMDSYEPGAYTEGVMRNVNFLTSTVIPEFVTQVNVALEALSKSSLNVLDDNQFVDISKKIYDTIHDIRCSVMMIRTPEELEDVSDLEEEHEVRSHTSIQTEGKTDRAKMTQLPEAEKEKIAEQVADFKKVKSKLDAEIEIWDDTSNDIIVLAKNMCMIMMEMTDFTRGKGPLKHTTDVIYAAKMISESGSRMDVLARQIANQCPDPSCKQDLLAYLEQIKFYSHQLKICSQVKAEIQNLGGELIMSALDSVTSLIQAAKNLMNAVVQTVKMSYIASTKIIRIQSPAGPRHPVVMWRMKAPAKKPLIKREKPEETCAAVRRGSAKKKIHPLQVMSEFRGRQIY

Test [1] addresses T1, human α-catulin fused to the GAL4 DNA binding domain, bait plasmid pGBT9-αctl(50-2264) (human, UniProt P04386 1-147; Q9UBT7 1-734).
T1 construct: Limits are printed only as cDNA positions (50-2264); also called α-catulin bait fusion
Nature of the test: yeast two-hybrid, cotransformation of bait and prey, X-GAL staining (FIG. 7A).
Source text: (§1) The yeast strain Y190 (Matchmaker, Clontech, CA), which contains GAL4 promoter driven His and β-galactosidase reporters, was used for cotransformation of pGBT9 bait and pGAD424 prey plasmids, comprising the cloned inserts of interest.

Test [2] concerns the target T2, human αT-catenin fused to the GAL4 binding domain, bait plasmid pGBT9-ATCTN(179-2860) (human, UniProt P04386 1-147 (Saccharomyces cerevisiae entry)).
T2 construct: also called αT-catenin bait fusion; hαT-catenin
Nature of the test: yeast two-hybrid, X-GAL staining of cotransformants.
Procedure: (§2) (A) Introduction in the two-hybrid system by cotransformation of the respective fusion constructs. […] (B) Quantification of interaction strength between β-catenin and either αE- or αT-catenin in the yeast two-hybrid system. β-Galactosidase activity was measured using CPRG as a substrate.

In test [3] the target is T3, human αE-catenin fused to the GAL4 DNA binding domain, bait plasmid pGBT9-αECTN (human, UniProt P04386 1-147; P35221 2-906).
T3 construct: no residue limits are printed; also called αE-catenin bait fusion
Described as above.
Procedure: as §2

Test [4] has as its target B2. As to the kind of experiment: yeast two-hybrid, Y190 strain, CPRG quantification (FIG. 7B).
Procedure: as §1
To assay the strength of interaction between α-catenins and β-catenin, β-galactosidase activity was assayed using chlorophenol red-β-D-galactopyranoside (CPRG, Boehringer Mannheim, Del.) as a substrate, according to the provided protocol (Clontech Yeast Protocols Handbook).
Test [5] concerns the target B1. As to the kind of experiment: cell-based or functional assay.
Test [6] has as its target T2, human αT-catenin fused to the GAL4 …. As to the kind of experiment: yeast two-hybrid, X-GAL staining of cotransformants (FIG. 7A).
Source text: as §1
For test [7], the target named is T4, β-catenin prey fusion of plasmid pGAD424-βctn (UniProt P35222 14-172).
T4 sequence (looked up): B1 chain
Nature of the test: cell-based or functional assay.

On to B1, for which the binding result in test [1] is “no binding”; in test [2], “binds”; in test [3], “binds”; in test [4], “binds”.
On to B2, for which the “β-Galactosidase activity measured using CPRG as a substrate, yeast two-hybrid, Y190 yeast strain” value in test [5] was ~4 fold against αE-catenin/β-catenin (pGBT9-αEctn plus pGAD424-ATβctn).
With B3, in test [6], the binding result is reported as “binds”.
Consider B4, for which, in test [7], the “β-Galactosidase activity measured using CPRG as a substrate, yeast two-hybrid, L40 yeast strain” value is ~4 fold against αE-catenin/β-catenin (pLexMG-αEctn plus pGAD424-βctn).
